Experimental data taken from article doi:10.1101/2025.08.07.669073 (bioRxiv, 2025).
Where a chain is given by its changes, count along the chain named. Names may count otherwise. Values belong to the molecule of their own block, whether it stands above or below them.

Legend:
[1] = target: human ATP13A1 mutated at the border between the membrane region and the ER lumen (human) (UniProt Q9HD20); experiment: co-IP
[2] = target: yeast EMC with Emc5-GFP, Emc10 deleted (S. cerevisiae) (UniProt P25574); experiment: co-IP
[3] = target: yeast EMC with Emc5-GFP, Emc7 deleted (S. cerevisiae, UniProt P25574;P47133;P36039;P53073;P40540;Q12431;Q12025); experiment: co-IP
[4] = target: yeast EMC with Emc5-TSII, recombinant from insect cells (S. cerevisiae) (UniProt P25574); experiment: co-IP
[5] = target: T1, yeast Spf1-FLAG, recombinant from insect cells (S. cerevisiae, UniProt P39986); experiment: cryo-EM structure
T1 sequence: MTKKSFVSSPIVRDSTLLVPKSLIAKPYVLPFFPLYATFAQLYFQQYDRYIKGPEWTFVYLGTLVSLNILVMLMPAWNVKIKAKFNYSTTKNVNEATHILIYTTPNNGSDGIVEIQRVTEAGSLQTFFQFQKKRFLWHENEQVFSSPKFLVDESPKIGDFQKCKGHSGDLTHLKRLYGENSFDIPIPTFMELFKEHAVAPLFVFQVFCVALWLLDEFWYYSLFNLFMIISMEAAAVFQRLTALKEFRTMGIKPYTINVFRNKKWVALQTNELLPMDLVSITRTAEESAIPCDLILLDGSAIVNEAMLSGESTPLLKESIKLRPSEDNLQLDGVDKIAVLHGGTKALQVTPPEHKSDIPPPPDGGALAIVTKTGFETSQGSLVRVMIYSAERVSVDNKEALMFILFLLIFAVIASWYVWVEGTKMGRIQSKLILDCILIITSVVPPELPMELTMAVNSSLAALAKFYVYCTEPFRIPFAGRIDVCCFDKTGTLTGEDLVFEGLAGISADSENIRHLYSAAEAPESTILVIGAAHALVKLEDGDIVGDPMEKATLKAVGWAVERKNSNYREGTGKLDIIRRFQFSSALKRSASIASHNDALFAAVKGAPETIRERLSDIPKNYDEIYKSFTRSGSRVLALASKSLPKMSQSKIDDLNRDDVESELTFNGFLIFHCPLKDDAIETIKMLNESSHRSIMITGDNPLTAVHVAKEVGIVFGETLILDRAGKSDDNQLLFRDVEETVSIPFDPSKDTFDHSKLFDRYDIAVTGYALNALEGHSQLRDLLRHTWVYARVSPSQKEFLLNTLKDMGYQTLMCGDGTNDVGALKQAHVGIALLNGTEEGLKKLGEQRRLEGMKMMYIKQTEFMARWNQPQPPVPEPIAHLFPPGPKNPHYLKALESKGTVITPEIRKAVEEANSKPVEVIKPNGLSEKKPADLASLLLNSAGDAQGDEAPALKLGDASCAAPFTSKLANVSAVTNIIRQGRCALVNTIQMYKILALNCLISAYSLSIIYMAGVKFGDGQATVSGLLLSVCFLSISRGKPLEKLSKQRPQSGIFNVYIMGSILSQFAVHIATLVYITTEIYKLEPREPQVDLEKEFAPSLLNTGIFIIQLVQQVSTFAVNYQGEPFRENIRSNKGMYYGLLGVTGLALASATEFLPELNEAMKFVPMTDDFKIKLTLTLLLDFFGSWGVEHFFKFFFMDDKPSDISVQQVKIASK

Sequence of human ATP13A1 mutated at the border between the membrane region and the ER lumen (human) (Q9HD20 whole entry, stated change not applied): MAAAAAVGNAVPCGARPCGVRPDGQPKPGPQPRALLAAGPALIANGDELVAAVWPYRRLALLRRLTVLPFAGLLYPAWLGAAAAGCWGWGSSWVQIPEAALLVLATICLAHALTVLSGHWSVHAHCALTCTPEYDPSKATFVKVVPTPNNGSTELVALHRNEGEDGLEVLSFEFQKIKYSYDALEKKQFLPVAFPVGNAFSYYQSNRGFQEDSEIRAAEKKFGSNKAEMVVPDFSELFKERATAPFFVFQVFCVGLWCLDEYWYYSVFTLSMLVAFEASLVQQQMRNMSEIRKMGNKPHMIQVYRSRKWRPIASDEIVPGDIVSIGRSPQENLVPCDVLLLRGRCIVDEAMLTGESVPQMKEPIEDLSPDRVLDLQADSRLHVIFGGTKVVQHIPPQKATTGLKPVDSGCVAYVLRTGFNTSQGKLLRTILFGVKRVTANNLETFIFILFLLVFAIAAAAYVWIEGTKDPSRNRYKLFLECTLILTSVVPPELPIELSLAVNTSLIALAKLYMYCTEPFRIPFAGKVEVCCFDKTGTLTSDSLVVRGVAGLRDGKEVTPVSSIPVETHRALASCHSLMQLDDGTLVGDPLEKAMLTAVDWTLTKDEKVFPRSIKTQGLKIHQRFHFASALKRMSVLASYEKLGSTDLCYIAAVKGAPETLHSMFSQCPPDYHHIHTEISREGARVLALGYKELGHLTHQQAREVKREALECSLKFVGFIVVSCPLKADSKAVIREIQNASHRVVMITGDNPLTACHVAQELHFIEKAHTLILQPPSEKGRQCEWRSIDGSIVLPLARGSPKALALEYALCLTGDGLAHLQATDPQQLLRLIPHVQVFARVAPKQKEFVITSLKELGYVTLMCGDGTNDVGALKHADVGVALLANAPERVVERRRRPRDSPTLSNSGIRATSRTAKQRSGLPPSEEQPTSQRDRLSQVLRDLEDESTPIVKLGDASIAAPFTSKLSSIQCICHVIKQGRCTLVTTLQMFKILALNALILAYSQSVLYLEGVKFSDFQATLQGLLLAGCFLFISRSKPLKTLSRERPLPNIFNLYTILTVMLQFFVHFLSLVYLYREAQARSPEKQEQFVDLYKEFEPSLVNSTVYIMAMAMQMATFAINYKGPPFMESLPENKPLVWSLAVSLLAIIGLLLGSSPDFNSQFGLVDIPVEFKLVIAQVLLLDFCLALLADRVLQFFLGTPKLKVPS
Sequence of yeast EMC with Emc5-GFP, Emc7 deleted (P25574 25-760, stated change not applied, chain 1 of 4): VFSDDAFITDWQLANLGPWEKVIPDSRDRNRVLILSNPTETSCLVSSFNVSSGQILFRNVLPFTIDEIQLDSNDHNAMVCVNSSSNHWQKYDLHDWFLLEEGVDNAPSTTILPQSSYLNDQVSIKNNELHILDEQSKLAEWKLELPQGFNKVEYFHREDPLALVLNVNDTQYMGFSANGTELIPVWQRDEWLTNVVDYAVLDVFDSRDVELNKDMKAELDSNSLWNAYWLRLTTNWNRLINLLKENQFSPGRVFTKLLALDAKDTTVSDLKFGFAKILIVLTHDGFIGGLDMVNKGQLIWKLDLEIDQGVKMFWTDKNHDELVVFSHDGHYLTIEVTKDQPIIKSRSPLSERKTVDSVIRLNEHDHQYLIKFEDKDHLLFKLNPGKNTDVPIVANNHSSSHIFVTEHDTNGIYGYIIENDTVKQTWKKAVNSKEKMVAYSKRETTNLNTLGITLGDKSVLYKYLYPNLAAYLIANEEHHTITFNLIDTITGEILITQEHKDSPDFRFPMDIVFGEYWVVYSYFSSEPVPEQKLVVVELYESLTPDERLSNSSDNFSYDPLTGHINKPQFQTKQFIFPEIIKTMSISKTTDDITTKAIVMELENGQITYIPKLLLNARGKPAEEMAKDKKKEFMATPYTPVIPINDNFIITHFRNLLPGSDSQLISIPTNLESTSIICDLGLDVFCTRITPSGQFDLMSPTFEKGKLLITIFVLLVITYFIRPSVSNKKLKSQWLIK
Sequence of yeast EMC with Emc5-GFP, Emc7 deleted (P47133 whole entry, stated change not applied, chain 2 of 4): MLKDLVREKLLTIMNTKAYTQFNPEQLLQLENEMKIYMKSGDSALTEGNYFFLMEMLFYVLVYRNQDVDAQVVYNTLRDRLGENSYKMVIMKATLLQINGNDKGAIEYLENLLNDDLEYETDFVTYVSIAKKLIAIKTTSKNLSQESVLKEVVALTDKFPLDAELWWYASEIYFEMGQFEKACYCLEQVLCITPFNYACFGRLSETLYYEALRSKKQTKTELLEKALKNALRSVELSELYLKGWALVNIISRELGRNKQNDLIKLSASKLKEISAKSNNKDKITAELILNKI
Sequence of yeast EMC with Emc5-GFP, Emc7 deleted (P40540 whole entry, stated change not applied, chain 5 of 4): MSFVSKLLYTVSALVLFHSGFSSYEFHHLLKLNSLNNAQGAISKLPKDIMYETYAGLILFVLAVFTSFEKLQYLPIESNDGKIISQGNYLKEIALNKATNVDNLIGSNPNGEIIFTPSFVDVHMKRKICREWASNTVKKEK
Sequence of yeast EMC with Emc5-GFP, Emc7 deleted (Q12431 whole entry, stated change not applied, chain 6 of 4): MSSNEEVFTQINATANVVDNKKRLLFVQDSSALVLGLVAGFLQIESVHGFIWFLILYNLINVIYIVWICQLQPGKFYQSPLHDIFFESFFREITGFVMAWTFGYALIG

interaction with the hEMC relative to wt [1]: 0.5 of wt
Molecule: human EMC, endogenous, HEK293T (from UniProt Q8N766;Q15006;Q9P0I2;Q5J8M3;Q8N4V1;Q9BV81;Q9NPA0;O43402;Q5UCC4) (complex)

Spf1 to Emc5 ratio in the IP, percent of wt [2]: 48%
Spf1 to Emc5 ratio in the IP, percent of wt [3]: 40%
B1: Spf1 with C-terminal triple HA-tag, endogenous locus, S. cerevisiae (natural protein)
chain: T1 sequence

EMC:Spf1 interaction, percent of wt [4]: 30%
B2: yeast Spf1 E1087A, recombinant from insect cells (natural protein)
chain: T1 sequence with E1087A

binding result [5]: binds
B3: yeast Emc3, subunit in the recombinant EMC:Spf1 complex (natural protein)
chain: MLLDDQLKYWVLLPISIVMVLTGVLKQYIMTLITGSSANEAQPRVKLTEWQYLQWAQLLIGNGGNLSSDAFAAKKEFLVKDLTEERHLAKAKQQDGSQAGEVPNPFNDPSMSNAMMNMAKGNMASFIPQTIIMWWVNHFFAGFILMQLPFPLTAKFKEMLQTGIICQDLDVRWVSSISWYFISVLGLNPVYNLIGLNDQDMGIQAGIGGPQGPQGPPQSQVDKAMHAMANDLTIIQHETCLDNVEQRVLKQYM

binding result [5]: binds
B4: yeast Emc10, subunit in the recombinant EMC:Spf1 complex (natural protein)
chain: ADILQLSYSDDAKDAIPLGTFEIDSTSDGNVTVTTVNIQDVEVSGEYCLNAQIEGKLDMPCFSYMKLRTPLKYDLIVDVDEDNEVKQVSLSYDETNDAITATVRYPEAGPTAPVTKLKKKTKTYADKKASKNKDGSTAQFEEDEEVKEVSWFQKNWKMLLLGLLIYNFVAGSAKKQQQGGAGADQKTE

binding result [5]: binds
B5: yeast Emc4, subunit in the recombinant EMC:Spf1 complex (natural protein)
chain: MSEQEPYEWAKHLLDTKYIEKYNIQNSNTLPSPPGFEGNSSKGNVTRKQQDATSQTTSLAQKNQITVLQVQKAWQIALQPAKSIPMNIFMSYMSGTSLQIIPIMTALMLLSGPIKAIFSTRSAFKPVLGNKATQSQVQTAMFMYIVFQGVLMYIGYRKLNSMGLIPNAKGDWLPWERIAHYNNGLQWFSD
